Laboratory results from patent US20220098591, “STEM-LOOP COMPOSITIONS AND METHODS FOR INHIBITING VASCULAR ENDOTHELIAL GROWTN FACTOR” (DRIVE THERAPEUTICS LLC, published 2022).

Columns and labels:
VEGF-A165 = molecular target: T1, VEGF-A165 (Homo sapiens); test: cell_activity; KDR phosphorylation; >50% at 100 nM with VEGF-A121; conditions: tags: glycan-biotinylated for SPR/FRET/AlphaLISA; Acro BioSystems, R&D Systems; chain copies: 2 (inferred)
T1 chain: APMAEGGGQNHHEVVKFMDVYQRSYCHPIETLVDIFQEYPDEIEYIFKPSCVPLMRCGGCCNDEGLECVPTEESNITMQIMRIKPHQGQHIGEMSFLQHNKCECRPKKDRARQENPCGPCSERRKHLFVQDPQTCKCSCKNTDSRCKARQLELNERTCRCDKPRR
Method: (§1) Briefly, HEK293 cells engineered to stably overexpress KDR were plated overnight in collagen coated 96 well plates at 50 k cells/well. Aptamers in SB1+ (40 mM HEPES, pH 7.5, 125 mM NaCl, 5 mM KCl, 1 mM MgCl₂) were heated to 90° C. for 3 minutes and allowed to cool to room temperature for a minimum of 10 minutes. […] 15 μL of VEGF-A was added to 15 μL titrated aptamer in a polypropylene plate and diluted to 300 μL with TS buffer (10 mM Tris pH 7.5; 100 mM NaCl; 5.7 mM KCl; 1 mM MgCl₂; 1 mM CaCl₂). The aptamer/VEGF-A mixture was incubated at 37° C. for 30 minutes, after which 100 μL was added to the cells for 5 minutes at 37° C. in 5% CO₂. Treatments were aspirated from cells, and cells were lysed with 100 μL cold lysis buffer [20 mM Tris-HCl, pH 7.5, 150 mM NaCl, 1 mM EDTA, 1% Triton X-100, 0.5 mM sodium orthovanadate (freshly prepared), 1 mM PMSF (freshly prepared), lx protease inhibitor cocktail (freshly prepared)] on ice for 10 minutes. Plates were centrifuged at 4000×g for 10 minutes before transferring the cell lysis to the AlphaLISA® assay plate.
(§2) To perform the AlphaLISA® assay, 10 μL of cell lysis was transferred to a white low volume 384 well Optiplate (Perkin Elmer). […] 10 μL of this reagent mixture was added to the assay plate that contained 10 μL of cell lysate. The assay plate was sealed and incubated in the dark for approximately 2 hours, then was read on a Biotek CYTATION™ 5 plate reader using the Alpha 384 well optical cube. Percent inhibition was calculated by subtracting TS buffer background from each value and normalizing to VEGF-A only controls. The values were fit by using a four-parameter non-linear fit in GraphPad Prism Version 7.0.

VEGF-A121 [1] = molecular target: T2, VEGF-A121 (Homo sapiens, UniProt P15692 SEQ:1-121); test: cell_activity; KDR phosphorylation in HEK293-KDR; conditions: tags: glycan biotinylated in TR-FRET; Biolegend in the cell assay; chain copies: 2
Method: as §1, §2

VEGF-A121 [2] = molecular target: T2, VEGF-A121; test: competition; TR-FRET; stem S3 mispaired; conditions: tags: glycan-biotinylated for SPR/FRET/AlphaLISA; Acro BioSystems, Biolegend; chain copies: 2 (stated)
Method: (§3) Briefly, for competition TR-FRET, 2-fold dilutions of thermally equilibrated aptamers were made in TR-FRET Buffer (50 mM MOPS, pH 7.4, 125 mM NaCl, 5 mM KCl, 50 μM CHAPS, 0.1 mg/mL BSA, 1 mM CaCl₂, and 1 mM MgCl₂). 5 μL of aptamer or control solution was added to a 15 μL mix of glycan biotinylated […] (5 nM final), ALEXA FLUOR® 647-labeled Aptamer (30 nM final), and Streptavidin-Eu (Perkin Elmer; 2.5 nM final) in a black wall low volume 384 well plate (Greiner). For control, 5 μl of 1000-fold excess of unlabeled parent aptamer or 5 μl TR-FRET buffer alone was added to the mix of ALEXA FLUOR® 647-labeled aptamer, biotin-VEGF-A, and Streptavidin-Eu. The plate was covered with a plate seal and subsequently incubated in the dark for 1 hour at room temperature. The plate was read on a Biotek CYTATION™ 5 plate reader. Samples were excited at 330 nm and fluorescent values were collected at 665 nm. Data analysis was performed by subtracting the background value and plotting as percent inhibition, normalized to baseline in the absence of competitor. The values were fit by [Inhibitor] vs. response-Variable slope (four parameters) using GraphPad Prism Version 7.0 and then normalized to aptamer control to obtain an IC₅₀ relative to parent aptamer. Data is presented as log values of relative IC₅₀. […]

VEGF-A121 [3] = molecular target: T2, VEGF-A121; test: competition; TR-FRET; stem S2 mispaired; conditions: tags: glycan-biotinylated for SPR/FRET/AlphaLISA; Acro BioSystems, Biolegend; chain copies: 2 (stated)
Method: as §3

## UAGGCCGCCUCCGCGCGGAGGGGUUUCAUUAUCCCGUUUGGCGGCCUU (ssRNA, all G 2'-F; A,C,U 2'-OMe; 5' C6NH2; 3' idT)
VEGF-A165
  activity: > 50 % inhibition at 10 nM

## UAGGCCGCCUCCGCGCGGAGGGGUUUCAUUAUCCCGUUUGGCGGCCUU (ssRNA, 2'-F G; 2'-OMe A,C,U; 5' C6NH2; 3' idT)
VEGF-A121 [1]
  activity: > 50 % inhibition at 100 nM

## UAGACCGCCUCCGCGCGGAGGGGUUUCAUUAUCCCGUUUGGCGGCUUU (ssRNA, all G 2'-F; A,C,U 2'-OMe; 5' C6NH2; 3' idT)
VEGF-A165
  activity: > 50 % inhibition at 10 nM

## UAGACCGCCUCCGCGCGGAGGGGUUUCAUUAUCCCGUUUGGCGGCUUU (ssRNA, 2'-F G; 2'-OMe A,C,U; 5' C6NH2; 3' idT)
VEGF-A121 [1]
  activity: > 50 % inhibition at 100 nM

## AGGCCGCCUCCGCGCGGAGCCGUUUCAUUAUCCCGUUUGGCGGCUU (ssRNA, all G 2'-F; A,C,U 2'-OMe; 5' C6NH2; 3' idT) [Aptamer 184]
VEGF-A121 [2]
  binding signal: > 100 fold worse IC50 vs Aptamer 26

## AGGCCGCCUCCGCGCGGAGGGGUUUCAUUAUAACGUUUGGCGGCUU (ssRNA, all G 2'-F; A,C,U 2'-OMe; 5' C6NH2; 3' idT) [Aptamer 185]
VEGF-A121 [2]
  binding signal: > 100 fold worse IC50 vs Aptamer 26

## UAGGCCGCCUCCGCGCGGAGGGGUUUCAUUUAUCCCGUUUGGCGGCUUU (ssRNA, all G 2'-F; A,C,U 2'-OMe; 5' C6NH2; 3' idT)
VEGF-A165
  activity: > 50 % inhibition at 10 nM

## UAGGCCGCCUCCGCGCGGAGGGGUUUCAUUUAUCCCGUUUGGCGGCUUU (ssRNA, 2'-F G; 2'-OMe A,C,U; 5' C6NH2; 3' idT)
VEGF-A121 [1]
  activity: > 50 % inhibition at 100 nM

## AGGCCGCCUUUGCGCUUAGGGGUUUCAUUAUCCCGUUUGGCGGCUU (ssRNA, all G 2'-F; A,C,U 2'-OMe; 5' C6NH2; 3' idT) [Aptamer 182]
VEGF-A121 [3]
  binding signal: > 100 fold worse IC50 vs Aptamer 26

## AGGCCGCCUCCGCGCCCAGGGGUUUCAUUAUCCCGUUUGGCGGCUU (ssRNA, all G 2'-F; A,C,U 2'-OMe; 5' C6NH2; 3' idT) [Aptamer 183]
VEGF-A121 [3]
  binding signal: > 100 fold worse IC50 vs Aptamer 26
